The target in experiment [1] is T1, IFNAR1, endogenous in A375 melanoma cells (human, UniProt P17181 28-557, poly-LacNAc glycosylation added by B3GNT2 (sites not given)).
T1 construct: whole, on cells; In the co-IP it comes from the lysate of A375 cells; also called IFNARI
T1 sequence (looked up): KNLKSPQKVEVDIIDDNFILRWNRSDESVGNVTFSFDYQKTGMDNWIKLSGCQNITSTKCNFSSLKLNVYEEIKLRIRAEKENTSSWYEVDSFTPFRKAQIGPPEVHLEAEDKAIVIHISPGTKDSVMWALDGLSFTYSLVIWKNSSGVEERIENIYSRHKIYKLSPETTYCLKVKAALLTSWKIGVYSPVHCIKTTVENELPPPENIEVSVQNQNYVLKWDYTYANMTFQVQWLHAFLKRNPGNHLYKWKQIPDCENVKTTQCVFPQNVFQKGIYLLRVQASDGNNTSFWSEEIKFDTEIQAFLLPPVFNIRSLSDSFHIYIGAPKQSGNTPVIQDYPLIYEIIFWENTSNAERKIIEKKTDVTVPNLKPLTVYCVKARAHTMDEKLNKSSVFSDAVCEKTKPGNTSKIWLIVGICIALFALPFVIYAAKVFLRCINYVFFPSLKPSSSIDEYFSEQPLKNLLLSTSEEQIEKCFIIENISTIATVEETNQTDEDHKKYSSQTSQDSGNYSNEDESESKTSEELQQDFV
The experiment is described as follows: co-IP of FLAG tagged B3GNT2 from A375 lysate, Western blot. How it is done:
(§1) Cells were plated in 10-cm cell culture dishes and grown to 60-80% confluency. For each condition, two biological replicates were harvested for co-IP. Cells were washed with PBS and 4 mL of lysis buffer (20 mM HEPES, 1% Triton X-100, 150 mM NaCl, 1 mM EDTA, and 10% glycerol) containing protease inhibitor cocktail was added. Cells were scraped and lysate was incubated at 4° C. under rotary agitation for 1 h. Lysate was centrifuged at 14,000×g for 10 min at 4° C. Supernatant was transferred to a new tube and an aliquot was taken as the input. […] For Western blots, 10 μg/mL Chicken Anti-FLAG (Aves labs ET-DY100) and IgY control (R&D Systems AB-101-C) antibodies were biotinylated (Thermo Fisher Scientific 90407) and added to the respective conditions. Lysates with antibodies were incubated at 4° C. under rotary agitation overnight. For each mL of lysate, 50 μL of Pierce Protein A/G Magnetic Beads (Mass spectrometry; Thermo Fisher Scientific 88803) or Pierce Streptavidin Magnetic Beads (Western blot; Thermo Fisher Scientific 88817) was washed twice with lysis buffer. Lysates with antibodies were added to the beads and incubated at 4° C. under rotary agitation for 4 h. Beads were washed with lysis buffer 3 times and resuspended in lysis buffer for storage.

Experiment [2] concerns the target T2, CD276, endogenous in A375 melanoma cells (human, UniProt Q5ZPR3 29-534, poly-LacNAc glycosylation added by B3GNT2 (sites not given)).
T2 construct: whole, on cells; On fixed A375 cells in flow cytometry; In the co-IP it comes from the lysate of these cells; also called B7H3
T2 sequence (looked up): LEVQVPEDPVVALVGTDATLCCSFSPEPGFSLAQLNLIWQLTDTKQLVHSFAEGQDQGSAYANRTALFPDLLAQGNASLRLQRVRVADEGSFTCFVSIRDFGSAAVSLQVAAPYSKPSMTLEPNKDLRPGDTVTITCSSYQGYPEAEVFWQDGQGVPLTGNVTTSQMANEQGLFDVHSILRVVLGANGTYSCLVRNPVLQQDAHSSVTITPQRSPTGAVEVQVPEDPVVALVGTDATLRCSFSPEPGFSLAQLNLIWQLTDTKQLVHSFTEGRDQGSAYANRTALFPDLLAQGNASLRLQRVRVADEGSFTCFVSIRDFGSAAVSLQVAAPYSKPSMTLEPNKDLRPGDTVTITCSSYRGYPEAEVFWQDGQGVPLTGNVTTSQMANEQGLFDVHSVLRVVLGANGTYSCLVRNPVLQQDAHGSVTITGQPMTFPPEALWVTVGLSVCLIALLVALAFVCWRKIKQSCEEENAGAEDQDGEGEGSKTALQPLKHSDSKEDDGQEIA
The description is as above. The protocol:
as §1

For experiment [3], the target named is T3, TNFRSF1A, endogenous in A375 melanoma cells (human, UniProt P19438 30-455, poly-LacNAc glycosylation added by B3GNT2 (sites not given)).
T3 construct: whole, on cells; In the co-IP it comes from the lysate of A375 cells
T3 sequence (looked up): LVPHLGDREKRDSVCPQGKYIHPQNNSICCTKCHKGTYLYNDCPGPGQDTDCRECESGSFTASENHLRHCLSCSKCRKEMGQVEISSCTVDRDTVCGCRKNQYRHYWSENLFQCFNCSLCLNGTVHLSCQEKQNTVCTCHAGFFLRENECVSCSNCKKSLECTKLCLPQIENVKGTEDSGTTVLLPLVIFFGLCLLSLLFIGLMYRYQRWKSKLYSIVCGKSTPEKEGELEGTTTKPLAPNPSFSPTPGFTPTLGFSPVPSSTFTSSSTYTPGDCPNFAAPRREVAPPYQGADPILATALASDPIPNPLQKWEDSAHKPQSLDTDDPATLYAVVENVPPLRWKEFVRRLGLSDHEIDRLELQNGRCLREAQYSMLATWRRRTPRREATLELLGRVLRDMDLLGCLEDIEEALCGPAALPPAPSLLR
The description is as above. The protocol: as §1

In experiment [4] the target is T4, MARS (human, UniProt P56192 1-900).
T4 construct: also called NP_004981.2
T4 sequence (looked up): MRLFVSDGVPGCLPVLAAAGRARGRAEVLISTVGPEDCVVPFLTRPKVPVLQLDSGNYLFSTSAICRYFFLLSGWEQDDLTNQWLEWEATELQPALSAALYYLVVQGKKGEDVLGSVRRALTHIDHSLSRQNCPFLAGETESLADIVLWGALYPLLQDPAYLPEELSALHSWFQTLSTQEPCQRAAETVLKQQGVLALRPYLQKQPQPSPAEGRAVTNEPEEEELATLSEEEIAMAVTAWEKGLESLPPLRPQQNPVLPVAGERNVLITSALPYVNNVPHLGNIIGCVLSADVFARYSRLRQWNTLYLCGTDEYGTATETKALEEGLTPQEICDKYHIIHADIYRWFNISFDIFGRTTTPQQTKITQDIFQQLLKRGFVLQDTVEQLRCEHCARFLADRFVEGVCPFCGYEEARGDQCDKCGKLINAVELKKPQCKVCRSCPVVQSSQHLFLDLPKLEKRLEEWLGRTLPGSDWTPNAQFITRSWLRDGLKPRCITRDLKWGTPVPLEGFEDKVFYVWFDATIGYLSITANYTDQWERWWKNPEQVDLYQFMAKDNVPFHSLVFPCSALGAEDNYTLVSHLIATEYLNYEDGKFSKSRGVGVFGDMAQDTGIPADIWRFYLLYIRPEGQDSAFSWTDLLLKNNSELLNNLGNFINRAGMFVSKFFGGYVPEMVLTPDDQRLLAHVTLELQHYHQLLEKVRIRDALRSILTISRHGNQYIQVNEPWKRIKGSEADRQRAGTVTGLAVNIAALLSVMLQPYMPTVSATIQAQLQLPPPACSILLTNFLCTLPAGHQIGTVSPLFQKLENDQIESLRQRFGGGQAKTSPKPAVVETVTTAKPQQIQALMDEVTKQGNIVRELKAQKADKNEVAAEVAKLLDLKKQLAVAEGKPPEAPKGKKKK
The experiment can be described thus: co-IP with anti-FLAG, mass spectrometry; lysate of cells with C-FLAG B3GNT2. How it is done:
as §1
(§2) Magnetic beads were resuspended in 100 mM Tris pH 7.8, reduced, alkylated and digested with trypsin at 37° ° C. overnight. This solution was subjected to solid phase extraction to concentrate the peptides and remove unwanted reagents followed by injection onto a Shimadzu HPLC with fraction collector. Eight fractions were collected and after concentration were injected on a Waters NanoAcquity HPLC equipped with a self-packed Aeris 3 μm C18 analytical column 0.075 mm by 20 cm, (Phenomenex). Peptides were eluted using standard reverse-phase gradients. The effluent from the column was analyzed using a Thermo Orbitrap Elite mass spectrometer (nanospray configuration) operated in a data dependent manner for 54 minutes. […]

Experiment [5] addresses T5, CD70 (human, UniProt P32970 1-193).
T5 construct: also called NP_001243.1
T5 sequence (looked up): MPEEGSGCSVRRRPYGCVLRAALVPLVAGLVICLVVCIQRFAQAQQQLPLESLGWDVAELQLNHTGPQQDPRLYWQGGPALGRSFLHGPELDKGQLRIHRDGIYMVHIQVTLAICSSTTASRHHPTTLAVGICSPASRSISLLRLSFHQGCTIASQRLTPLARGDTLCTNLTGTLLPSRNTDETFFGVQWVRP
Described as above. How it is done:
as §1, §2

Experiment [6] deals with T6, PSMD4 (human, UniProt P55036 1-377, limits assumed).
T6 construct: also called NP_001317621.1 (+1)
The experiment is described as above. How it is done: as §1, §2

T6 sequence (P55036 whole entry): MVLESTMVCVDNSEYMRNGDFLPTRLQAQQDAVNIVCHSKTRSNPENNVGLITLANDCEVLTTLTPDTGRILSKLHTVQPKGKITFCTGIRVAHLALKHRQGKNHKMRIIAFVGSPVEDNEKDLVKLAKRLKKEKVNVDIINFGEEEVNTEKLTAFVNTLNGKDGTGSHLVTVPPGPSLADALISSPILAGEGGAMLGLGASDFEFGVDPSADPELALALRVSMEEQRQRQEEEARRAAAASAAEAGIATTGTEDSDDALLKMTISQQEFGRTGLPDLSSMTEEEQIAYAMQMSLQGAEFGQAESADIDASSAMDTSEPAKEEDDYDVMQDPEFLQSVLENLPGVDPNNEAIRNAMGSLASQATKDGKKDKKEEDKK

B1: FLAG tagged B3GNT2 (N- or C-terminal FLAG tag) (enzyme, human, UniProt Q9NY97 1-397, looked up)
chain: MSVGRRRIKLLGILMMANVFIYFIMEVSKSSSQEKNGKGEVIIPKEKFWKISTPPEAYWNREQEKLNRQYNPILSMLTNQTGEAGRLSNISHLNYCEPDLRVTSVVTGFNNLPDRFKDFLLYLRCRNYSLLIDQPDKCAKKPFLLLAIKSLTPHFARRQAIRESWGQESNAGNQTVVRVFLLGQTPPEDNHPDLSDMLKFESEKHQDILMWNYRDTFFNLSLKEVLFLRWVSTSCPDTEFVFKGDDDVFVNTHHILNYLNSLSKTKAKDLFIGDVIHNAGPHRDKKLKYYIPEVVYSGLYPPYAGGGGFLYSGHLALRLYHITDQVHLYPIDDVYTGMCLQKLGLVPEKHKGFRTFDIEEKNKNNICSYVDLMLVHSRKPQEMIDIWSQLQSAHLKC
notes: The text speaks of the co-IP of B3GNT2 without separating the N-FLAG and C-FLAG constructs, so both are held as one molecule; also called N-FLAG B3GNT2; C-FLAG B3GNT2; not shown: FLAG tag at the N- or the C-terminus
Regarding B1, the binding result in experiment [1], in experiment [2] and in experiment [3] was “binds” throughout.

B2: C-terminal FLAG tagged B3GNT2 (enzyme, human, UniProt Q9NY97 1-397, looked up)
chain: MSVGRRRIKLLGILMMANVFIYFIMEVSKSSSQEKNGKGEVIIPKEKFWKISTPPEAYWNREQEKLNRQYNPILSMLTNQTGEAGRLSNISHLNYCEPDLRVTSVVTGFNNLPDRFKDFLLYLRCRNYSLLIDQPDKCAKKPFLLLAIKSLTPHFARRQAIRESWGQESNAGNQTVVRVFLLGQTPPEDNHPDLSDMLKFESEKHQDILMWNYRDTFFNLSLKEVLFLRWVSTSCPDTEFVFKGDDDVFVNTHHILNYLNSLSKTKAKDLFIGDVIHNAGPHRDKKLKYYIPEVVYSGLYPPYAGGGGFLYSGHLALRLYHITDQVHLYPIDDVYTGMCLQKLGLVPEKHKGFRTFDIEEKNKNNICSYVDLMLVHSRKPQEMIDIWSQLQSAHLKC
notes: Bait of the co-IP; pulled down with mouse anti-FLAG (Millipore Sigma F3165) from cell lysate; also called C-FLAG B3GNT2; C-term flag; not shown: C-terminal FLAG tag
As to B2, the figures for the “co-IP mass spectrometry count” value in experiment [4], in experiment [5] and in experiment [6] were 0, 2 and 0, respectively.
